In this assay the target is zebrafish Ctla-4, HA-tagged (pCDNA3.1-HA-Ctla-4) (zebrafish). In words: Western blot under non-reducing and reducing conditions. A general note: Immunoblotting shows a protein as a band on a membrane.

By stoichiometry N is commonly meant the number of molecules, sites or subunits per partner or assembly. In turn, “zebrafish Ctla-4, HA-tagged (pCDNA3.1-HA-Ctla-4) (receptor)” yielded a stoichiometry N of 2.

The values are drawn from doi:10.1101/2024.07.24.604955.
